Source: patent US20130315910A1 (Xencor, published 2013)
Substitutions are numbered along the chain they refer to. In names and notes the source's numbering stands.

Columns and labels:
Assay in all cases: SPR
[1] = target: T1, human FcγRIIIa (158V), His- and GST-tagged (human, UniProt P08637 17-208)
T1 construct: also called V158 FcγRIIIa; VIIIa; not shown: 6xHis and GST tags of the pTT5 vector

[2] = target: T2, human FcγRIIb receptor protein (R&D Systems) (human, UniProt P31994 46-217)
T2 construct: Bought protein injected over captured antibody in Biacore; also called CD32b
T2 sequence (looked up): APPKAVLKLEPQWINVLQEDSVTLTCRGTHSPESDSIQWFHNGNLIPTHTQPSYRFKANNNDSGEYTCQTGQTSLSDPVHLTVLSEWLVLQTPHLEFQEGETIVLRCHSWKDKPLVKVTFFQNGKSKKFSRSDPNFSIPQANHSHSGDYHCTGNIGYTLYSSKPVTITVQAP

[3] = target: T3, human FcγRI receptor protein (R&D Systems) (human, UniProt P12314 16-288)
T3 construct: also called soluble FcγRI; solFcγRI

[4] = target: T4, human FcγRIIa (131R), His- and GST-tagged (human, UniProt P12318 34-217)
T4 construct: Expressed in HEK293T cells, purified by nickel chromatography; also called R131 FcγRIIa; not shown: 6xHis and GST tags of the pTT5 vector
T4 sequence (looked up): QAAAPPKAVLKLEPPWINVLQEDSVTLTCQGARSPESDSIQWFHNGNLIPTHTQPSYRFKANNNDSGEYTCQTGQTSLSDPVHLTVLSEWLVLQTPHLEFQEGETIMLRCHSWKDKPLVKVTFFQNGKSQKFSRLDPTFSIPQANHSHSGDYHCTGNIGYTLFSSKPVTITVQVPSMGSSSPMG

[5] = target: T5, human FcγRIIa (131H), His- and GST-tagged (human, UniProt P12318 34-217)
T5 construct: also called H131 FcγRIIa; HIIa; not shown: 6xHis and GST tags of the pTT5 vector
T5 sequence (looked up): T4 sequence (looked up) with R134H

cynoFcγRIIb = target: T6, cynoFcγRIIb (Macaca fascicularis, UniProt A0A140HDP4)
T6 construct: extracellular region, C-terminal His- and GST-tag; also called cynomolgus monkey FcγRIIb
T6 sequence (receptor extracellular region): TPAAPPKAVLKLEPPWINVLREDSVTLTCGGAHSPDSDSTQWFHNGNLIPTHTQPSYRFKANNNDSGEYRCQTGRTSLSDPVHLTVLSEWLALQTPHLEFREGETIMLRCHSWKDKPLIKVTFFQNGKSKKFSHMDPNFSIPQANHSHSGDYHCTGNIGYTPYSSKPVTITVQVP

mFcγRIIb = target: T7, mFcγRIIb (Mus musculus, UniProt P08101)
T7 construct: extracellular region, C-terminal His- and GST-tag; also called mouse FcγRII
T7 sequence (receptor extracellular region, looked up): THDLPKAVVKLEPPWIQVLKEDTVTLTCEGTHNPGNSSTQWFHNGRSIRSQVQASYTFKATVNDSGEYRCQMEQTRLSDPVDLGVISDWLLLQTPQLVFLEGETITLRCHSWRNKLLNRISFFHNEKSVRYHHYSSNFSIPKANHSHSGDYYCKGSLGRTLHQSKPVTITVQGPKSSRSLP

T1 sequence (P08637 17-208 F176V): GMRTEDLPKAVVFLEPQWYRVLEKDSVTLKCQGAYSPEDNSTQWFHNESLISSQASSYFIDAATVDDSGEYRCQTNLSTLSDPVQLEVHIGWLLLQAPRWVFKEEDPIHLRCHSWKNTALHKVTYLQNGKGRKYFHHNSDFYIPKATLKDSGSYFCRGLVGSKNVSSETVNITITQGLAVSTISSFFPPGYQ
T3 sequence (P12314 16-288 limits assumed): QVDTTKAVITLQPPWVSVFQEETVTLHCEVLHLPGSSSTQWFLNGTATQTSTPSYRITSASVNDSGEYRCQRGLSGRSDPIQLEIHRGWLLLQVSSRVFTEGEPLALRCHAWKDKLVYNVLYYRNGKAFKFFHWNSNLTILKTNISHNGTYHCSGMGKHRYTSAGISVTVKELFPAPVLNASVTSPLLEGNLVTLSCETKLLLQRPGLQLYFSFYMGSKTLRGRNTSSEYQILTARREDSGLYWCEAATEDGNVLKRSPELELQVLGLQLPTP

B1: G237N/S267E (antibody, human IgG1, kappa)
heavy: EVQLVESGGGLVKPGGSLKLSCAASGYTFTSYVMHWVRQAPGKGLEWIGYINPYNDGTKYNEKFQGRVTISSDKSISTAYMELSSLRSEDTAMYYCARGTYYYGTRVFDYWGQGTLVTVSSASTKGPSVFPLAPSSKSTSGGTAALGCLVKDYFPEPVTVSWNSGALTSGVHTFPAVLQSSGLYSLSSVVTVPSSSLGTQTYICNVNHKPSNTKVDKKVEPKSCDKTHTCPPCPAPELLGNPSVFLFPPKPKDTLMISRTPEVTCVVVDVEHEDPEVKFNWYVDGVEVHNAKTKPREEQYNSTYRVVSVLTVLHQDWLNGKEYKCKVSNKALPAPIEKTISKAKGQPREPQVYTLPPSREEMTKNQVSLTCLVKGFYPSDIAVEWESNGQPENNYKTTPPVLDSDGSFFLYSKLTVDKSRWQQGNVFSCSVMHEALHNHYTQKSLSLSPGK
light: DIVMTQSPATLSLSPGERATLSCRSSKSLQNVNGNTYLYWFQQKPGQSPQLLIYRMSNLNSGVPDRFSGSGSGTEFTLTISSLEPEDFAVYYCMQHLEYPITFGAGTKLEIKRTVAAPSVFIFPPSDEQLKSGTASVVCLLNNFYPREAKVQWKVDNALQSGNSQESVTEQDSKDSTYSLSSTLTLSKADYEKHKVYACEVTHQGLSSPVTKSFNRGEC
notes: HuAM4G7 anti-CD19 IgG1 (m1) with these Fc substitutions, EU index; copies: 2 + 2
binding result [1]: no binding
Fold vs WT IgG1 [2]: 40.5 fold
Kd [2]: 36.2 nM
Fold vs WT IgG1 [3]: 0.101 fold
Kd [3]: 3.25 nM
Fold vs WT IgG1 [4]: 61.5 fold
Kd [4]: 14 nM

B2: L234W (antibody, human IgG1, kappa)
heavy: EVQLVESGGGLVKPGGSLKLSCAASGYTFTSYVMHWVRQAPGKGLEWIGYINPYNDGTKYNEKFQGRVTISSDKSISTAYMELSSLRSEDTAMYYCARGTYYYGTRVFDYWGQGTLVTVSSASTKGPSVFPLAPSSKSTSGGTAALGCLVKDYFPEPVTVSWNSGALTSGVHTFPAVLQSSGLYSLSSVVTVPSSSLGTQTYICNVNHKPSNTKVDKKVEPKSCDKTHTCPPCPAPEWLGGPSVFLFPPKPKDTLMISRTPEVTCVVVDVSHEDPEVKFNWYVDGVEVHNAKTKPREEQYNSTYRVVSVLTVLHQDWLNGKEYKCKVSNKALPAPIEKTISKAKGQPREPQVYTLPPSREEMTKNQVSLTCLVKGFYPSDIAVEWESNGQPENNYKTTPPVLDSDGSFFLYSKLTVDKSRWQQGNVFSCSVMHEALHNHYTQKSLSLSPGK
light: B1 light
notes: HuAM4G7 anti-CD19 IgG1 (m1) with this Fc substitution, EU index; copies: 2 + 2
Kd [1]: 6.59 µM
Kd [2]: 1770 nM
Kd [3]: 10.5 nM
Kd [5]: 1160 nM

B3: L234W/S239E/S267E (antibody, human IgG1, kappa)
heavy: EVQLVESGGGLVKPGGSLKLSCAASGYTFTSYVMHWVRQAPGKGLEWIGYINPYNDGTKYNEKFQGRVTISSDKSISTAYMELSSLRSEDTAMYYCARGTYYYGTRVFDYWGQGTLVTVSSASTKGPSVFPLAPSSKSTSGGTAALGCLVKDYFPEPVTVSWNSGALTSGVHTFPAVLQSSGLYSLSSVVTVPSSSLGTQTYICNVNHKPSNTKVDKKVEPKSCDKTHTCPPCPAPEWLGGPEVFLFPPKPKDTLMISRTPEVTCVVVDVEHEDPEVKFNWYVDGVEVHNAKTKPREEQYNSTYRVVSVLTVLHQDWLNGKEYKCKVSNKALPAPIEKTISKAKGQPREPQVYTLPPSREEMTKNQVSLTCLVKGFYPSDIAVEWESNGQPENNYKTTPPVLDSDGSFFLYSKLTVDKSRWQQGNVFSCSVMHEALHNHYTQKSLSLSPGK
light: B1 light
notes: as for B1
Fold vs WT IgG1 [2]: 42.3 fold
Kd [2]: 34.7 nM
Fold vs WT IgG1 [4]: 98.5 fold
Kd [4]: 8.72 nM
Fold vs WT IgG1 (Kd) (cynoFcγRIIb): 2.25 fold
Fold vs WT IgG1 (Kd) (mFcγRIIb): 0.761 fold

B4: L328F (antibody, human IgG1, kappa)
heavy: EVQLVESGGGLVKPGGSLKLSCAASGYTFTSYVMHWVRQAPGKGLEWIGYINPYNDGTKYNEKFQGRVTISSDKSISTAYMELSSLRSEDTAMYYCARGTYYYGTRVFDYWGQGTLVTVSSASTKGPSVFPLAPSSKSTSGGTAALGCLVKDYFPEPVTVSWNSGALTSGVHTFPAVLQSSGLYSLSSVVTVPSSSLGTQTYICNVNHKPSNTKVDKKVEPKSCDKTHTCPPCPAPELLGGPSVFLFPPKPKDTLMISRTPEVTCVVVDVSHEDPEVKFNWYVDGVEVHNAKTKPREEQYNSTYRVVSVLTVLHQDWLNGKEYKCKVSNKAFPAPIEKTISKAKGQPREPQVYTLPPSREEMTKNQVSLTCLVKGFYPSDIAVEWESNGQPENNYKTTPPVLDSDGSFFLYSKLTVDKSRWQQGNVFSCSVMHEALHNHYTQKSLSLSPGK
light: B1 light
notes: as for B2
Kd [1]: 58.4 µM
Kd [2]: 541 nM
Kd [3]: 0.452 nM
Kd [4]: 166 nM

B5: L234W/H268D/L328Y (antibody, human IgG1, kappa)
heavy: B3 heavy with E243S, E271S, H272D, L332Y
light: B1 light
notes: as for B1
Fold vs WT IgG1 [2]: 5.92 fold
Kd [2]: 248 nM
Fold vs WT IgG1 (Kd) (cynoFcγRIIb): 4.63 fold
Fold vs WT IgG1 (Kd) (mFcγRIIb): 5.92 fold

B6: S298L (antibody, human IgG1, kappa)
heavy: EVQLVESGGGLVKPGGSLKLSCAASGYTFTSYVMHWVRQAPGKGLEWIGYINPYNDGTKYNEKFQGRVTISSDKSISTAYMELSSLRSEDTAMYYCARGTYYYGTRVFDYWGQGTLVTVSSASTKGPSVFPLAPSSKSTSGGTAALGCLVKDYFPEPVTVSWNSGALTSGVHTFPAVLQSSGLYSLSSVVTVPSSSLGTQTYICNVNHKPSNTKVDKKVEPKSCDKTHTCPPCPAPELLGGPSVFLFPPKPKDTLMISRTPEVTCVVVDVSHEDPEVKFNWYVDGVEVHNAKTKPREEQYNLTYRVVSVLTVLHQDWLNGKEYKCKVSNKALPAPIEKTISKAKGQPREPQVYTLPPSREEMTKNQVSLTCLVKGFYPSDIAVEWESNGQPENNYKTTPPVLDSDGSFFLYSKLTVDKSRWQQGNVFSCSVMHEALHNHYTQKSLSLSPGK
light: B1 light
notes: as for B2
binding result [2]: no binding
Fold vs WT IgG1 (Kd) (cynoFcγRIIb): 0.04 fold
Fold vs WT IgG1 (Kd) (mFcγRIIb): 0.208 fold

B7: S298M (antibody, human IgG1, kappa)
heavy: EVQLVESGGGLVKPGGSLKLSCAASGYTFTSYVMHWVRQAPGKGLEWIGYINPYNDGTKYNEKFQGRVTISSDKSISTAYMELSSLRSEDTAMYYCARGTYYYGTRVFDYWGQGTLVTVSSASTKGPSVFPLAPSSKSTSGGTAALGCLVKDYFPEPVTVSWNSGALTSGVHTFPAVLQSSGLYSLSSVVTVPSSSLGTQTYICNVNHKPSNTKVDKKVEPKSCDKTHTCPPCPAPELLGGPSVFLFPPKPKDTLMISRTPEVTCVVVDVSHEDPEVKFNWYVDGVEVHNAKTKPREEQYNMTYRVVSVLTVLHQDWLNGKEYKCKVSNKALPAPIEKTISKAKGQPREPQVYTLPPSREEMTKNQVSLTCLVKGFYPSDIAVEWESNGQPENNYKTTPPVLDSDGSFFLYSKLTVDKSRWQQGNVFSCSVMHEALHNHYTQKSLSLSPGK
light: B1 light
notes: as for B2
binding result [2]: no binding
Fold vs WT IgG1 (Kd) (cynoFcγRIIb): 2.85 fold
Fold vs WT IgG1 (Kd) (mFcγRIIb): 0.549 fold
